Data on one substance can be found in patent publication US10864269B2, “Therapeutic combinations comprising anti-CD73 antibodies and uses thereof” (MedImmune Limited, priority 2014, dated 2020).

One experiment concerns the target T1, Murine CD73 ECD (Mus musculus, UniProt Q61503).
T1 construct: made in house; host or cells: mammalian cells
T1 sequence (Q61503 29-551 limits assumed): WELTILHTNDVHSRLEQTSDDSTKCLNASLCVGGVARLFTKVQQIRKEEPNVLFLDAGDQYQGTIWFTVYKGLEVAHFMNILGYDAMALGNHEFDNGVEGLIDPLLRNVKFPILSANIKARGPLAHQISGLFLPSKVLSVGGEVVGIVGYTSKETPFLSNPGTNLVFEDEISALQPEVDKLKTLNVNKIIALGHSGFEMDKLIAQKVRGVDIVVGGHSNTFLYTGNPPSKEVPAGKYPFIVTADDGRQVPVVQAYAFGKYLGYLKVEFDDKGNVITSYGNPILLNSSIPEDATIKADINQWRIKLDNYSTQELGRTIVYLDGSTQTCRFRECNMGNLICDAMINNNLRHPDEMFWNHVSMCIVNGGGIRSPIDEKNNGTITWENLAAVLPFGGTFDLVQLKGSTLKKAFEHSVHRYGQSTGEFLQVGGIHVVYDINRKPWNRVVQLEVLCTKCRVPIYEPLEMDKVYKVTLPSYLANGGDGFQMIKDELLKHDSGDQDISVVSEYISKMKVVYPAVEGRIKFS
The experiment can be described thus: Surface plasmon resonance (ProteOn), murine CD73. In kind it is binding. The following applies: SPR. As to the method:
A ProteOn XPR36 instrument was used to characterize binding of MEDI9447 to human, murine, and cynomolgus CD73 ECD. MEDI9447 was affinity-captured using an anti-human Fc antibody. CD73 ECD was in the mobile phase. The association and dissociation of CD73 to MEDI9447 could be accurately described with the Langmuir 1:1 model.
The affinity of enhanced anti-CD73 antibodies (in IgG1-TM format) to human, murine, and cynomolgus CD73 was determined by flow cytometry and surface plasmon resonsance (SPR) (Table 13). The enhanced antibodies had pM affinity to cellular and recombinant CD73 from the three species.

Experiment [1] has as its system CT26 murine syngeneic tumors. Briefly: CT26 syngeneic tumor model, MEDI9447 monotherapy. In kind it is in vivo, Balb/C mice. As to the method: CT26 cells, which are derived from a murine colon cancer, were established by subcutaneous (SC) injection of 5×10^5 cells suspended in 0.1 mL of PBS into the right flanks of 4-to-6-week-old female mice. The mice were treated with MEDI9447 or with a control antibody.
10 mice per group were used in this study. Animals were randomly assigned into groups. Animals in Group 1 were untreated and Group 2 was administered an isotype control. MEDI9447 was administered to Group 3. Test articles were administered intraperitoneally twice weekly starting on Day 3. On Day 16, 5 animals from each group were necropsied and tumors were isolated.
Tumors were measured on Days 1, 7, 9, 12, 14, and 16 by caliper, and the volumes of tumors were calculated as follows: […] (1) The anticancer effects of MEDI9447 were expressed as percent tumor growth inhibition, which was calculated as follows: (Average tumor volume for MEDI9447/Average tumor volume for R347-TM)×100 (2)
Tumors were isolated for flow cytometry. Tumors were dissected from CT26 tumor-bearing mice on study Day 16. Tumors were cut into small pieces and were digested with collagenase. […] Dissociated cells were pelleted at 1000 rpm for 5 minutes at 4° C. and were re-suspended in fluorescence-activated cell sorting (FACS) buffer. Cells were counted on Vi-Cell using the default setting. […]

As to “MEDI9447: IgG1 with CD730010-derived VL of SEQ ID NO: 68 and VH of SEQ ID NO: 82”, in the experiment with Murine CD73 ECD, the ka came to 2.41e+06 M⁻¹ s⁻¹ and the kd stood at 2.32e-06 s⁻¹. Also, in experiment [1] (CT26, Balb/C mice, 10 mg/kg IP 2X weekly), the tumor growth result was “inhibited tumor growth”. In addition, the “proportion of tumor-infiltrating MDSCs” value in experiment [1] (CT26 tumors harvested study Day 16, flow cytometry) was “reduced”.
